Assay results reported in patent US20220041718A1 (AUTOLUS, published 2022).
Positions count from the first letter of the chain named. In names and notes the source's numbering stands.

B1: hJovi-1 variant IgG, VH T28K, Y32F, A100N; VL unmutated (antibody, V domains shown)
VH: QVQLVQSGAEVKKPGASVKVSCKASGYKFTGFVMHWVRQAPGQGLEWMGFINPYNDDIQSNERFRGRVTMTRDTSISTAYMELSRLRSDDTAVYYCARGNGYNFDGAYRFFDFWGQGTMVTVSS
VL: DIVMTQSPLSLPVTPGEPASISCRSSQRLVHSNGNTYLHWYLQKPGQSPRLLIYRVSNRFPGVPDRFSGSGSGTDFTLKISRVEAEDVGVYYCSQSTHVPYTFGQGTKLEIK
notes: IgG format; also called anti-TRBC2 triple mutant
B2: hJovi-1 variant IgG, VH G31R, Y32F, A100N; VL unmutated (antibody, V domains shown)
VH: B1 VH with K28T, G31R
VL: B1 VL
notes: IgG format
B3: hJovi-1 variant IgG, VH G31S, T28K, Y32F, A100N; VL unmutated (antibody, V domains shown)
VH: B1 VH with G31S
VL: B1 VL
notes: IgG format
B4: hJovi-1 variant IgG, VH N103E, T28K, Y32F, A100N; VL N35M (antibody, V domains shown)
VH: B1 VH with N103E
VL: B1 VL with N35M
notes: IgG format
B5: hJovi-1 variant IgG, VH N103F, T28K, Y32F, A100N; VL N35F (antibody, V domains shown)
VH: B1 VH with N103F
VL: B1 VL with N35F
notes: IgG format
B6: hJovi-1 variant IgG, VH N103F, T28K, Y32F, A100N; VL N35M (antibody, V domains shown)
VH: B1 VH with N103F
VL: B1 VL with N35M
notes: IgG format
B7: hJovi-1 variant IgG, VH N103F, T28K, Y32F, A100N; VL N35Y (antibody, V domains shown)
VH: B1 VH with N103F
VL: B1 VL with N35Y
notes: IgG format
B8: hJovi-1 variant IgG, VH N103L, T28K, Y32F, A100N; VL N35F (antibody, V domains shown)
VH: B1 VH with N103L
VL: B1 VL with N35F
notes: IgG format
B9: hJovi-1 variant IgG, VH N103L, T28K, Y32F, A100N; VL N35K (antibody, V domains shown)
VH: B1 VH with N103L
VL: B1 VL with N35K
notes: IgG format
B10: hJovi-1 variant IgG, VH N103L, T28K, Y32F, A100N; VL N35M (antibody, V domains shown)
VH: B1 VH with N103L
VL: B1 VL with N35M
notes: IgG format
B11: hJovi-1 variant IgG, VH N103L, T28K, Y32F, A100N; VL N35R (antibody, V domains shown)
VH: B1 VH with N103L
VL: B1 VL with N35R
notes: IgG format
B12: hJovi-1 variant IgG, VH N103L, T28K, Y32F, A100N; VL N35Y (antibody, V domains shown)
VH: B1 VH with N103L
VL: B1 VL with N35Y
notes: IgG format
B13: hJovi-1 variant IgG, VH N103M, T28K, Y32F, A100N; VL N35F (antibody, V domains shown)
VH: B1 VH with N103M
VL: B1 VL with N35F
notes: IgG format
B14: hJovi-1 variant IgG, VH N103S, T28K, Y32F, A100N; VL N35F (antibody, V domains shown)
VH: B1 VH with N103S
VL: B1 VL with N35F
notes: IgG format
B15: hJovi-1 variant IgG, VH N103S, T28K, Y32F, A100N; VL N35K (antibody, V domains shown)
VH: B1 VH with N103S
VL: B1 VL with N35K
notes: IgG format
B16: hJovi-1 variant IgG, VH N103S, T28K, Y32F, A100N; VL N35M (antibody, V domains shown)
VH: B1 VH with N103S
VL: B1 VL with N35M
notes: IgG format
B17: hJovi-1 variant IgG, VH N103S, T28K, Y32F, A100N; VL N35R (antibody, V domains shown)
VH: B1 VH with N103S
VL: B1 VL with N35R
notes: IgG format
B18: hJovi-1 variant IgG, VH N103S, T28K, Y32F, A100N; VL N35Y (antibody, V domains shown)
VH: B1 VH with N103S
VL: B1 VL with N35Y
notes: IgG format
B19: hJovi-1 variant IgG, VH N103W, T28K, Y32F, A100N; VL N35F (antibody, V domains shown)
VH: B1 VH with N103W
VL: B1 VL with N35F
notes: IgG format
B20: hJovi-1 variant IgG, VH N103W, T28K, Y32F, A100N; VL N35K (antibody, V domains shown)
VH: B1 VH with N103W
VL: B1 VL with N35K
notes: IgG format
B21: hJovi-1 variant IgG, VH N103W, T28K, Y32F, A100N; VL N35M (antibody, V domains shown)
VH: B1 VH with N103W
VL: B1 VL with N35M
notes: IgG format
B22: hJovi-1 variant IgG, VH N103W, T28K, Y32F, A100N; VL N35R (antibody, V domains shown)
VH: B1 VH with N103W
VL: B1 VL with N35R
notes: IgG format
B23: hJovi-1 variant IgG, VH T28K Y32F A100N; VL R55K (antibody, V domains shown)
VH: B1 VH
VL: B1 VL with R55K
notes: IgG format
B24: hJovi-1 variant IgG, VH T28K, G31R, Y32F, A100N; VL unmutated (antibody, V domains shown)
VH: B1 VH with G31R
VL: B1 VL
notes: IgG format
B25: hJovi-1 variant IgG, VH T28K, Y32F, A100N, A107S; VL unmutated (antibody, V domains shown)
VH: B1 VH with A107S
VL: B1 VL
notes: IgG format
B26: hJovi-1 variant IgG, VH T28K, Y32F, A100N, N103A; VL unmutated (antibody, V domains shown)
VH: B1 VH with N103A
VL: B1 VL
notes: IgG format
B27: hJovi-1 variant IgG, VH T28K, Y32F, A100N, N103E; VL unmutated (antibody, V domains shown)
VH: B1 VH with N103E
VL: B1 VL
notes: IgG format
B28: hJovi-1 variant IgG, VH T28K, Y32F, A100N, N103F; VL N35K (antibody, V domains shown)
VH: B1 VH with N103F
VL: B1 VL with N35K
notes: IgG format
B29: hJovi-1 variant IgG, VH T28K, Y32F, A100N, N103F; VL unmutated (antibody, V domains shown)
VH: B1 VH with N103F
VL: B1 VL
notes: IgG format
B30: hJovi-1 variant IgG, VH T28K, Y32F, A100N, N103H; VL unmutated (antibody, V domains shown)
VH: B1 VH with N103H
VL: B1 VL
notes: IgG format
B31: hJovi-1 variant IgG, VH T28K, Y32F, A100N, N103L; VL unmutated (antibody, V domains shown)
VH: B1 VH with N103L
VL: B1 VL
notes: IgG format
B32: hJovi-1 variant IgG, VH T28K, Y32F, A100N, N103M; VL N35M (antibody, V domains shown)
VH: B1 VH with N103M
VL: B1 VL with N35M
notes: IgG format
B33: hJovi-1 variant IgG, VH T28K, Y32F, A100N, N103M; VL N35R (antibody, V domains shown)
VH: B1 VH with N103M
VL: B1 VL with N35R
notes: IgG format
B34: hJovi-1 variant IgG, VH T28K, Y32F, A100N, N103M; VL N35Y (antibody, V domains shown)
VH: B1 VH with N103M
VL: B1 VL with N35Y
notes: IgG format
B35: hJovi-1 variant IgG, VH T28K, Y32F, A100N, N103M; VL unmutated (antibody, V domains shown)
VH: B1 VH with N103M
VL: B1 VL
notes: IgG format
B36: hJovi-1 variant IgG, VH T28K, Y32F, A100N, N103Q; VL unmutated (antibody, V domains shown)
VH: B1 VH with N103Q
VL: B1 VL
notes: IgG format
B37: hJovi-1 variant IgG, VH T28K, Y32F, A100N, N103S; VL unmutated (antibody, V domains shown)
VH: B1 VH with N103S
VL: B1 VL
notes: IgG format
B38: hJovi-1 variant IgG, VH T28K, Y32F, A100N, N103W; VL unmutated (antibody, V domains shown)
VH: B1 VH with N103W
VL: B1 VL
notes: IgG format
B39: hJovi-1 variant IgG, VH T28K, Y32F, A100N, N103Y; VL unmutated (antibody, V domains shown)
VH: B1 VH with N103Y
VL: B1 VL
notes: IgG format
B40: hJovi-1 variant IgG, VH T28K, Y32F, A100N, Y102F, N103M; VL N35F (antibody, V domains shown)
VH: B1 VH with Y102F, N103M
VL: B1 VL with N35F
notes: IgG format

Experiments:
[1] = target: T1, Recombinant purified TRBC1 (human, UniProt P01850 1-129, limits assumed); experiment: SPR, IgG captured on anti-human Fc, TRBC1 as analyte
T1 construct: Construct not described (may be a soluble TCR carrying TRBC1); also called TCR beta constant region 1; soluble recombinant biotinylated TRBC1
From the text: (§1) A series S CM5 sensor chip was immobilised via amine coupling, with an anti-human Fc capture antibody to a density of 9000-10000 RU, using a Biacore T200 instrument. HBS-P+ buffer was used as running buffer in all experimental conditions. The test anti-TRBC2 antibodies (Table 1) were captured on flow cells 2, 3 and 4 to a density of 100-300 RU. Recombinant purified TRBC1 or TRBC2 at known concentrations were used as the ‘analyte’ and injected over the respective flow cells with 150s contact time and 300s dissociation at 30 μl/minute of flow rate. In each experiment, flow cell 1 was unmodified and used for reference subtraction. A ‘0 concentration’ sensorgram of buffer alone was used as a double reference subtraction to factor for drift. Data were fit to a 1:1 Langmuir binding model. Since a capture system was used, a local Rₘₐₓ parameter was used for the data fitting in each case.

[2] = target: T2, Recombinant purified TRBC2 (human, UniProt A0A5B9 1-129, limits assumed); experiment: SPR, IgG captured on anti-human Fc, TRBC2 as analyte
T2 construct: Construct not described (may be a soluble TCR carrying TRBC2); also called TCR beta constant region 2; soluble recombinant biotinylated TRBC2
From the text: as §1

T1 sequence (P01850 1-129 limits assumed): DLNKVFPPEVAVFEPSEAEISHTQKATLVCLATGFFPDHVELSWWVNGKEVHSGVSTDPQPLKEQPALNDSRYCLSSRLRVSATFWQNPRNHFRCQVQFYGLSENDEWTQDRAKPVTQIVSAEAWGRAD
T2 sequence (A0A5B9 1-129 limits assumed): as the sequence (P01850 1-129 limits assumed) above, with N3K, K4N, E9K, F36Y counted along it

Binder	Kd [1] [nM]	Kd [2] [nM]
B1	2730	432
B2	3140	1360
B3	3680	1170
B4	5830	2130
B5	1610	459
B6	459	130
B7	1860	501
B8	1380	369
B9	707	187
B10	1500	364
B11	810	201
B12	1930	480
B13	459	130
B14	6580	1560
B15	3680	851
B16	8220	1830
B17	3930	917
B18	7830	1880
B19	1680	510
B20	1680	417

Binder	Kd [1] [nM]	Kd [2] [nM]
B21	2280	611
B22	1730	390
B23	962	165
B24	17400	4950
B25	3590	1160
B26	3390	714
B27	2930	1300
B28	881	294
B29	1060	270
B30	2020	416
B31	1280	302
B32	648	131
B33	290	90.3
B34	733	172
B35	376	83.6
B36	1770	484
B37	3540	983
B38	1650	425
B39	1580	339
B40	11300	1320
